Measured values reported in patent EP4658690A2 (dated 2025).

Target: T1, human CD180/MD-1 on HEK293 cells (human, UniProt Q99467 24-661; O95711 21-162)
T1 construct: whole, on cells; CD180 co-expressed with MD-1 on engineered HEK293 cells; also called HEK293 CD180/MD-1 cells; CD180/MD1 HEK293 cells
T1 sequence (looked up) 1: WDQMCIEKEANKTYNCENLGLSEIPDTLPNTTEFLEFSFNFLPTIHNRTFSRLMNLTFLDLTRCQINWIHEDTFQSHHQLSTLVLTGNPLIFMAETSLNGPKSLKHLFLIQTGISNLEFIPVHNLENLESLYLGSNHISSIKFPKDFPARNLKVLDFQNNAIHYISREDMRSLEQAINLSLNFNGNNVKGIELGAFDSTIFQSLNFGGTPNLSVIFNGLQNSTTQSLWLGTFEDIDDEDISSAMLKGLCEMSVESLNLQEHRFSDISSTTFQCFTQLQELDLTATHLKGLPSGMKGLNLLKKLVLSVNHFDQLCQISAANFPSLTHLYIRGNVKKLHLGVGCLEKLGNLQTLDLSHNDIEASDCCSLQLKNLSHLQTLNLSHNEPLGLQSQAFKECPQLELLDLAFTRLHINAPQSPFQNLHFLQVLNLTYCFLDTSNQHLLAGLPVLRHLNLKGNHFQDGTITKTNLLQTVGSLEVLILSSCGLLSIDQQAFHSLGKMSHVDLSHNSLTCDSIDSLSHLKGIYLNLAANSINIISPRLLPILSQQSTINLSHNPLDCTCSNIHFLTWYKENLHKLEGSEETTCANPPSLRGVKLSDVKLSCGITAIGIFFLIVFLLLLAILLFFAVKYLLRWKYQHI
T1 sequence (looked up) 2: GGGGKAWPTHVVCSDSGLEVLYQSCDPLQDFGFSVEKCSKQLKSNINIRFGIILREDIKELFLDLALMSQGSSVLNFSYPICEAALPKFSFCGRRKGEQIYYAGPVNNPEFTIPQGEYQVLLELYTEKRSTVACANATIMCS
Experiment: flow cytometry (called cell-based ELISA) on HEK293 CD180/MD-1 cells, MFI fitted to a 4-parameter curve

B1: CHAMPmAb-014 (antibody, V domains shown)
VH: EVQLVESGGGLVQPGRSLRLSCTTSGFTFADYAMHWVRQTPGQGLEWVSGISWNGGTMGYADSVKGRFTISRDIAKNSLYLQMNSLRAEDTALYYCAKDIAYSRGYFQHWGQGTLVTVSS
VL: not shown
**Q.** Which EC50 does the source give for B1 here?
**A.** 4 nM
